We go through three substances from patent publication US20160333061A1.

Holding throughout (experiment): cell-based or functional assay
In assay [1] the target is CytERM-EBFP2 (Aequorea victoria (Water jellyfish) (Mesonema victoria)) [GFP: P42212].
The next assay has as its target CytERM-mTagBFP.
The target of assay [2] is CytERM-moxBFP (Aequorea victoria (Water jellyfish) (Mesonema victoria)) [GFP: P42212].

“CytERM-EBFP2 (from UniProt P42212 2-238)” returned a % Cells with OSER Structures (n = cells) in assay [1] of 63.7%.

Substance CytERM-mTagBFP had a % Cells with OSER Structures (n = cells) in the assay with CytERM-mTagBFP of 43.5%. Turning to “CytERM-moxBFP (from UniProt P42212 2-238)”, the % Cells with OSER Structures (n = cells) in assay [2] is 0.9%.
